Target: CRLR/RAMP3 (human)

IC50 (read off the curve): 100 µg/mL
Substance: hADM(22-52) (from UniProt P35318) (peptide)

Reference: patent US20260035456A1
